These results are taken from patent US5846764, “Materials and methods relating to proteins that interact with casein kinase I” (ICOS Corporation, dated 1998).

Assay [1] deals with lexA::HRR25 K→R fusion (pBTM116::HRR25K→R) (E. coli; S. cerevisiae) (UniProt P0A7C2). The assay is described as follows: yeast two-hybrid (lexA bait, GAL4 prey), liquid β-galactosidase assay.
The target of assay [2] is lexA::HRR25 fusion (pBTM116::HRR25) (E. coli; S. cerevisiae) (UniProt P0A7C2). Described as above.
In assay [3] the target is lexA::HRR25 non-catalytic domain fragment (pBTM116::Non-catalytic) (E. coli; S. cerevisiae) (UniProt P0A7C2). The assay is described as above.
The target of assay [4] is T1, lexA DNA binding domain alone (pBTM116 vector) (E. coli, UniProt P0A7C2). Nature of the assay: yeast two-hybrid, liquid β-galactosidase assay. The method, then:
To construct pairwise combinations between pBTM116-based plasmids and pGAD-based plasmids, yeast strains of opposite mating types were replica plated in a crossed pattern on YEPD medium (Bio101) and were allowed to mate for 18 hours. Diploid cells were selected by a second replica plating onto SD-leucine, -tryptophan medium to select for cells that contained both pBTM116-type and pGAD-type plasmids. The isolated diploids were grown in liquid SD-leucine, -tryptophan medium to a cell density of 2×10^7 cells/ml and the level of interaction of the kinase and interacting protein, as determined by beta-galactosidase activity, was determined from cells that were lysed by adding 3 drops of chloroform and 50 µl of 0.1 % SDS to 2×10^6 cells suspended in 0.1 ml of Z buffer and subsequently adding 0.2 ml of the chromogenic substrate o-nitrophenyl-β-D-galactoside. β-galactosidase assays were terminated by adding 0.5 ml of 1M Na_2CO_3 and activity was measured by reading absorbance at 420 nm using a Milton Roy spectrophotometer (Rochester, N.Y.). In this assay, the degree of protein/protein interaction is directly proportional to the level of β-galactosidase activity. […] Values were normalized to vector alone controls.

For assay [5], the target named is lexA::HRR25 K→R fusion (pBTM116::HRR25K→R) (E. coli; S. cerevisiae) (UniProt P0A7C2). The assay is described as follows: yeast two-hybrid (lexA bait, GAL4 activation domain prey), liquid β-galactosidase assay, normalized to vector alone.
In assay [6] the target is lexA::HRR25 catalytic domain fragment (pBTM116::Kinase domain) (E. coli; S. cerevisiae) (UniProt P0A7C2). The description is as above.
lexA::HRR25 catalytic domain fragment (pBTM116::Kinase domain) (E. coli; S. cerevisiae), sequence (P0A7C2 1-202, tags or fused parts left off): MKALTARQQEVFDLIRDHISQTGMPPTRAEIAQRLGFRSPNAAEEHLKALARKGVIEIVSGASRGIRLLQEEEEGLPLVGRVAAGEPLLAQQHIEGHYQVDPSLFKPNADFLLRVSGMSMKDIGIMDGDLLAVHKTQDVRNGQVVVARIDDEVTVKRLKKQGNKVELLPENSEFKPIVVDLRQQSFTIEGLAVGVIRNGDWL
The target of assay [7] is lexA::HRR25 fusion (pBTM116::HRR25) (E. coli; S. cerevisiae) (UniProt P0A7C2). The assay is described as above.
For assay [8], the target named is lexA::NUF1 fusion (pBTM116::NUF1) (E. coli; S. cerevisiae) (UniProt P0A7C2). Described as above.
Assay [9] concerns the target lexA::HRR25 non-catalytic domain fragment (pBTM116::Non-catalytic) (E. coli; S. cerevisiae, UniProt P0A7C2). The assay is described as above.
The target of assay [10] is T1, lexA DNA binding domain alone (pBTM116 …). The assay is described as above.
In assay [11] the target is lexA::HRR25 non-catalytic domain fragment (pBTM116::Non-catalytic) (E. coli; S. cerevisiae) (UniProt P0A7C2). The assay is described as above.

Bounds are passed on as bounds.

As to “GAL4::CIN8 fusion (pGAD::CIN8) (from UniProt P27895)”, the values for the units of β-galactosidase activity in assay [1], in [2] and in assay [3] were 28 units, 5 units and less than 0.1 units, respectively.

Regarding “GAL4::KIP2 fusion (pGAD::KIP2) (from UniProt P28743)”, the units of β-galactosidase activity in [1] is 16 units; in [2], 10 units; in assay [3], less than 0.1 units.

Regarding “GAL4::KAR3 fusion (pGAD::KAR3) (from UniProt P17119)”, the units of β-galactosidase activity in assay [1] is 75 units; in assay [2], 15 units; in assay [3], 60 units.

On to “GAL4::KIP1 fusion (pGAD::KIP1) (from UniProt P28742)”, for which the values for the units of β-galactosidase activity in assay [1], in assay [2] and in assay [3] were 55 units, 16 units and 70 units, respectively.

B1: GAL4 activation domain::TIH2 library clone (pGAD::TIH2) (other)
chain: RSSSNLSLDSLSKMSGSGNNNTSNNQLFSTLMNGINANSMMNSPMNNTINNNSSNNNNSGNIILNQPSLSAQHTSSSLYQTNVNNQAQMSTERFYAPLPSTSTLPLPPQQLDFNDPDTLEIYSQLLLFKDREKYYYELAYPMGISASHKRIINVLCSYLGLVEVYDPRFIIIRRKILDHANLQSHLQQQGQMTSAHPLQPNSTGGSMNRSQSYTSLLQAHAAAAANSISNQAVNNSSNSNTINSNNGNGNNVIINNNSASSTPKISSQGQFSMQPTLTSPKMNIHHSSQYNSADQPQQPQPQTQQNVQSAAQQQQSFLRQQATLTPSSRIPSGYSANHYQINSVNPLLRNSQISPPNSQIPINSQTLSQAQPPAQSQTQQRVPVAYQNASLSSQQLYNLNGPSSANSQSQLLPQHTNGSVHSNFSYQSYHDESMLSAHNLNSADLIYKSLSHSGLDDGLEQGLNRSLSGLDLQNQNKKNLW
For the molecule B1, in assay [4], the binding result is reported as “no binding (tested: <5)”. Moreover, the relative β-galactosidase activity is 150 in assay [5]; 160 in assay [6]; 650 in assay [7]; less than 5 in [8]; less than 5 in assay [9]; less than 5 in [10].

B2: GAL4 activation domain::TIH4 library clone (pGAD::TIH4) (protein)
chain: RRMISELKNRSNIGEPLTKSSNESTYKDIKATGNDGDPNLALMRAENRVLKYKLENCEKLLDKDVVDLQDSEIMEIVEMLPFEVGTLLETKFQGLESQIRQYRKYTQKLEDKIMALEKSGHTAMSLTGCDGTEVIELQKMLERKDKMIEALQSAKRLRDRALKPLINTQQSPHPVVDNDK
With B2, the units of β-galactosidase activity in [1] amounted to 66 units; in [2], 70 units.

B3: GAL4 activation domain::TIH3 library clone (pGAD::TIH3) (other)
chain: IKPMVESNCKNGQISATKDLVKLVEEFVEKYVELSKEKADTLKPLPSVTSFGSPRKVAAPELSMVQPESKPEAEAEISEIGSDRWRFNWVNIIILVLLVLNLLYLMKLNKKMDKLTNLMTHKDEVVAHATLLDIPAQVQWSRPRRGDVL
For the molecule B3, in [4], the binding result is listed as “no binding (tested: <5)”. The relative β-galactosidase activity in assay [5] was 30; in assay [6], 130; in assay [7], 100; in assay [11] it was less than 5; in assay [8] it was 10; in [10] it was less than 5.

B4: GAL4 activation domain::TIH1 library clone (pGAD::TIH1) (other)
chain: DQLKSYAEEQLKLLLGITKEEQIDPGRELLNMLHTAVQANSNNNAVSNGQVPSSQELQHLKEQSGEHNQQKDQQSSFSSQQQPSIFPSLSEPFANNKNVIPPTMPMANVFMSNPQLFATMNGQPFAPFPFMLPLTNNSNSANPIPTPVPPNFNAPPNPMAFGVPNMHNLSGPAVSQPFSLPPAPLPRDSGYSSSSPGQLLDILNSKKPDSNVQSSKKPKLKILQRGTDLNSLKQNNNDETAHSNSQALLDLLKKPTSSQKIHASKPDTSFLPNDSVSGIQDAEYEDFESSSDEEVETARDERNSLNVDIGVNVMPSEKDSRRSQKEKPRNDASKTNLNASAESNSVEWGAG
For the molecule B4, the binding result in [4] was “no binding (tested: <5)”. Besides, the relative β-galactosidase activity was 100 in assay [5]; 820 in assay [6]; 850 in [7]; less than 5 in assay [11]; less than 5 in assay [8]; less than 5 in assay [10].
